Test results reported in patent EP4755403A1 (Jiangsu Hengrui Pharmaceuticals Co., Ltd., dated 2025).

Legend:
[1] = biological target: T1, human PSMA (prostate specific membrane antigen) on tumor cells (human, UniProt Q04609 1-750); test: cell-based or functional assay
[2] = biological target: T1, human PSMA (prostate specific membrane …); test: flow cytometry on LNCaP cells, FITC anti-human IgG secondary
[3] = biological target: T1, human PSMA (prostate specific membrane …); test: flow cytometry on 22RV1 cells, FITC anti-human IgG secondary
[4] = biological target: T1, human PSMA (prostate specific membrane …); test: as above; remark: listed apart in the source
[5] = biological target: T2, mouse PSMA-His (ACRO, PSA-M5245) (mouse, UniProt O35409 45-752); test: SPR (Biacore T200), antibody captured on Protein A chip, antigen flowed over
T2 construct: Commercial protein; not shown: His tag
T2 sequence (O35409 45-752): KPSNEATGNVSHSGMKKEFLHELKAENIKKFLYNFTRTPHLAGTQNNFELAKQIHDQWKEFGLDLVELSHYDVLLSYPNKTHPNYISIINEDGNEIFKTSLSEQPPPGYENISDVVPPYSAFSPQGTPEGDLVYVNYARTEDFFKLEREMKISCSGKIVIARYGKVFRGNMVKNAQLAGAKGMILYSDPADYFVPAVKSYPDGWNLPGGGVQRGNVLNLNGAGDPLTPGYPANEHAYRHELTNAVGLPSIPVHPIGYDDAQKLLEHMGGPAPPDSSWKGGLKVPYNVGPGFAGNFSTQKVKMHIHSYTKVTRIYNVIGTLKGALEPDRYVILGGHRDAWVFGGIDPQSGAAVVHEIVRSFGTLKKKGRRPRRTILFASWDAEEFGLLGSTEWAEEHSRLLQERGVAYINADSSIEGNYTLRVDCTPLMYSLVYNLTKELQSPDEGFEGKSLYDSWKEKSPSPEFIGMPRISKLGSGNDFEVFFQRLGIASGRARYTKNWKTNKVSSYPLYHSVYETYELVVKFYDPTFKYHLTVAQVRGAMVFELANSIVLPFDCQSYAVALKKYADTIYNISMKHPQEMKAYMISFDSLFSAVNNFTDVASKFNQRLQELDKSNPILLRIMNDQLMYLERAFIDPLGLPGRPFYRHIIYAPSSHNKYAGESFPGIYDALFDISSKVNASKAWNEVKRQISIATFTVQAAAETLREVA

[6] = biological target: T1, human PSMA (prostate specific membrane …); test: flow cytometry on LNCaP cells, FITC anti-human IgG secondary; remark: listed apart in the source
[7] = biological target: T3, monkey PSMA-His (ACRO, PSA-C5247) (monkey (cynomolgus), UniProt A0A2K5VNZ0 44-750); test: SPR (Biacore T200), antibody captured on Protein A chip, antigen flowed over, 1:1 model
T3 construct: Commercial protein; also called cynomolgus monkey PSMA; not shown: His tag

[8] = biological target: T4, human PSMA-His (ACRO, PSA-H52H3) (human, UniProt Q04609 44-750); test: as above
T4 construct: Commercial protein; not shown: His tag
T4 sequence (Q04609 44-750 limits assumed): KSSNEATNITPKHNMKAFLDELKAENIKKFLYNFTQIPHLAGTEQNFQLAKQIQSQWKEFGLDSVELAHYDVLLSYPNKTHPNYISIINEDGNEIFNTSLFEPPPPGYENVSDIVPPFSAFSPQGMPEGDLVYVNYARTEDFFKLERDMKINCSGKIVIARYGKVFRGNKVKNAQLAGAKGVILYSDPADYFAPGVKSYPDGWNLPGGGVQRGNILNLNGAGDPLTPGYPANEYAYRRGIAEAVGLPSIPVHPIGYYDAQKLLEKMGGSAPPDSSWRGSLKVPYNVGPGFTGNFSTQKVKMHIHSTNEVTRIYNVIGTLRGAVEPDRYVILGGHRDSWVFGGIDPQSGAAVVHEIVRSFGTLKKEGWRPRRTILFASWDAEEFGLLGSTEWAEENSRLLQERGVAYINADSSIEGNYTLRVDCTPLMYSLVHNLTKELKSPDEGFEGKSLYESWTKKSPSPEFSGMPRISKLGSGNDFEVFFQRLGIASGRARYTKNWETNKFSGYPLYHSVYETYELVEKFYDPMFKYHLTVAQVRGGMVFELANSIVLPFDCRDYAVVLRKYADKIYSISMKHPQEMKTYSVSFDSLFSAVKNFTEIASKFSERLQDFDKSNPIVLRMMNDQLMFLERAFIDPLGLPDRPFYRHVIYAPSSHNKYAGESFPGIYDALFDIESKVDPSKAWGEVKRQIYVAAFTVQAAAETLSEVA

[9] = biological target: T1, human PSMA (prostate specific membrane …); test: cell-based or functional assay; remark: listed apart in the source

T1 sequence (Q04609 whole entry): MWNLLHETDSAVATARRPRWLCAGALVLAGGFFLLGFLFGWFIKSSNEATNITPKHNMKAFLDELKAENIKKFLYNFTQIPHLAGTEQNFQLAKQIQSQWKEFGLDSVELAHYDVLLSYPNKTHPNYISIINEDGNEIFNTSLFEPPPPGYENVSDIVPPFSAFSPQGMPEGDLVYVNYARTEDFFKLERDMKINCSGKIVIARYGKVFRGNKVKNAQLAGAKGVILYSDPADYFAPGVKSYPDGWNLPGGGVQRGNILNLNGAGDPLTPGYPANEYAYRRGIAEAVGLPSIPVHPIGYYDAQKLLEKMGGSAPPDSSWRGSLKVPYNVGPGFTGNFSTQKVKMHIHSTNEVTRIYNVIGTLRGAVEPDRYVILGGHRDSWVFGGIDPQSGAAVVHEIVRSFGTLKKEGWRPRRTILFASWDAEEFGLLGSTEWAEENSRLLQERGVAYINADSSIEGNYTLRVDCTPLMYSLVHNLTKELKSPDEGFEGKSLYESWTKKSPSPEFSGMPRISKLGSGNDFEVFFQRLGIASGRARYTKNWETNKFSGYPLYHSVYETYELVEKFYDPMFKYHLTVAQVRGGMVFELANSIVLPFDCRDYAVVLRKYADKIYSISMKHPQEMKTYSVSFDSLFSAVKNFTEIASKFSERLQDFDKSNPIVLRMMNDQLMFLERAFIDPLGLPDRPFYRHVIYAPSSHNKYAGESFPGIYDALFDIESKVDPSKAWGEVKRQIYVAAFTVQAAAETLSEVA

B1: H-AB-P1 (AB-PG1-XG1-006) (antibody, V domains shown)
VH: QVQLVESGGGVVQPGRSLRLSCAASGFAFSRYGMHWVRQAPGKGLEWVAVIWYDGSNKYYADSVKGRFTISRDNSKNTQYLQMNSLRAEDTAVYYCARGGDFLYYYYYGMDVWGQGTTVTVSS
VL: DIQMTQSPSSLSASVGDRVTITCRASQGISNYLAWYQQKTGKVPKFLIYEASTLQSGVPSRFSGGGSGTDFTLTISSLQPEDVATYYCQNYNSAPFTFGPGTKVDIK
DT3C endocytosis assay on LNCaP cells, IC50 [1]: 2.71 nM

B2: P19 (19L2H2) (antibody, human IgG1, kappa, V domains shown)
VH: EVKLVESGGGLVQPGGSLRLSCAASGFTFSDYYMAWVRQAPGKGLEWVANINYDGSSTYYLDSLKSRFTISRDNAKNSLYLQMNSLRAEDTAVYYCARGGDYWDAMDYWGQGTTVTVSS
VL: DIQMTQSPSSLSASVGDRVTITCRASQDISKYLNWYQQKPGKAPKLLIYYTSSLHSGVPSRFSGSGSGTDYTLTISSLQPEDFATYYCQQGNRLPRTFGGGTKVEIKR
notes: Humanized anti-PSMA antibody from mouse mAb19-1 (hu19-1 VH2 + hu19-1 VL2), human IgG1 / kappa constant regions; also called antibody P19
EC50 [2]: 2.09 nM
EC50 [3]: 0.0719 nM
EC50 [4]: 0.637 nM
DT3C endocytosis assay on LNCaP cells, IC50 [1]: 0.25 nM
binding result [5]: no binding
EC50 [6]: 0.305 nM
Kd [7]: 5.08 nM
Kd [8]: 1.3 nM
koff [8]: 7.92e-05 s⁻¹
kon [8]: 61100 M⁻¹ s⁻¹

B3: ADC-2 (P19-9-A, n = 7.41) (antibody, human IgG1, kappa, V domains shown)
VH: B2 VH
VL: B2 VL
modifications: drug-linker 9-A coupled via sulfhydryl groups on cysteine; mean n = 7.41 per antibody (positions not stated)
EC50 [3]: 0.0812 nM
killing of 22RV1 (+) cells, CellTiter-Glo, IC50 [9]: 6.92 nM
killing of LNCaP (+++) cells, CellTiter-Glo, IC50 [9]: 2.83 nM
EC50 [6]: 0.307 nM

B4: ADC-1 (P19-9-A, n = 5.55) (antibody, human IgG1, kappa, V domains shown)
VH: B2 VH
VL: B2 VL
modifications: drug-linker 9-A coupled via sulfhydryl groups on cysteine; mean n = 5.55 per antibody (positions not stated)
EC50 [3]: 0.114 nM
killing of 22RV1 (+) cells, CellTiter-Glo, IC50 [9]: 29.5 nM
killing of LNCaP (+++) cells, CellTiter-Glo, IC50 [9]: 8.52 nM
EC50 [6]: 0.442 nM
